Data on four substances can be found in US20260001934A1.

The target of assay [1] is α39P AChR.CD8H.BBz CAAR.
For assay [2], the target named is α65P AChR.CD8H.BBz CAAR.
The target in assay [3] is α210.GS.BBz CAAR.
In assay [4] the target is α211.GS.BBz CAAR.
The target in assay [5] is α39P AChR.CD8H.BBz CAAR. The source holds these as a separate data set.
Assay [6] has as its target α65P AChR.CD8H.BBz CAAR. The source holds these as a separate data set.
The target in assay [7] is α208.GS.BBz.
The target in assay [8] is α210.GS.BBz CAAR. This is another data set of the same source.
For assay [9], the target named is α211.GS.BBz CAAR. The source holds these as a separate data set.
Assay [10] addresses α39P AChR.CD8H.BBz CAAR. As to the kind of experiment: flow cytometry, mAb 210 staining of lentivirally transduced Jurkat cells, day 3; the same gate on NTD cells reads 0.43. A general note: Flow cytometry measures light scatter and fluorescence of single cells or particles in a stream.
Assay [11] addresses α65P AChR.CD8H.BBz CAAR. The description is as above.
In assay [12] the target is α210.GS.BBz CAAR. As to the kind of experiment: flow cytometry, mAb 210 plus anti-rat IgG-APC on transiently transfected 293T cells, day 2; non-transfected 293T reads 0%.
For assay [13], the target named is α211.GS.BBz CAAR. The assay is described as above.
For assay [14], the target named is α39P AChR.CD8H.BBz CAAR. Description: flow cytometry, mAb 210 staining of lentivirally transduced primary human CD3+ T cells, day 5; the same gate on NTD cells reads 0.32.
For assay [15], the target named is α65P AChR.CD8H.BBz CAAR. The assay is described as above.
Assay [16] addresses α210.GS.BBz CAAR. Description: flow cytometry, mAb 210 plus secondary IgG-APC on lentivirally transduced primary human T cells, day 5; the same gate on NTD cells reads 0.20.
Assay [17] addresses α211.GS.BBz CAAR. The description is as above.
For assay [18], the target named is α208.GS.BBz. Description: flow cytometry, mAb 210 plus anti-rat IgG-APC on transiently transfected 293T cells, day 2; non-transfected 293T reads 0%; the filing says this CAAR is not expressed on the cell surface, so the low value shows absent target and not lack of affinity.
Assay [19] addresses α208.GS.BBz. As to the kind of experiment: flow cytometry, mAb 210 plus secondary IgG-APC on lentivirally transduced primary human T cells, day 5; the same gate on NTD cells reads 0.20; the filing says this CAAR is not surface-expressed, so the low value shows absent target and not lack of affinity.

Chain of α39P AChR.CD8H.BBz CAAR (chain, as listed by the source): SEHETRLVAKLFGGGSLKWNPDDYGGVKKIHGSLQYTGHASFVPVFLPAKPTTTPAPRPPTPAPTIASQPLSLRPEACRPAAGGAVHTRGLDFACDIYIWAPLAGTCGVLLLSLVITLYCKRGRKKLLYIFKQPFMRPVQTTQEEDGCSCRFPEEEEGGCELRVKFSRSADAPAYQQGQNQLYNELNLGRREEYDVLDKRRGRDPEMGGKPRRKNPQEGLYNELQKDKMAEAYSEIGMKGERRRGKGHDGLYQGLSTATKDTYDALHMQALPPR

For the substance “mAb 192 anti-AChR B cell receptor expressed on Nalm6 cells (antibody)”, in the assay with α39P AChR.CD8H.BBz CAAR [1], the % GFP+ among CD3+-gated α39P CAAR Jurkat NFAT-GFP cells after 12 h co-culture, lower histogram (Nalm6 control: 4.1) (% (unit not given; gate frequency)) is 6.23 and the % of all co-cultured cells in the CD3+ GFP+ quadrant, upper dot plot, upper right (Nalm6 control: 1.52) (% (unit not given; quadrant frequency)) was 5.44. In addition, in the assay with α65P AChR.CD8H.BBz CAAR [2], the % GFP+ among CD3+-gated α65P CAAR Jurkat NFAT-GFP cells after 12 h co-culture, lower histogram (% (unit not given; gate frequency)) was found to be 41.4 and the % of all co-cultured cells in the CD3+ GFP+ quadrant, upper dot plot, upper right (% (unit not given; quadrant frequency)) worked out at 5.96. For the same substance, in the assay with α210.GS.BBz CAAR [3], the % GFP+ AChR CAAR Jurkat NFAT-GFP cells (CD3+ gate) after 12 h co-culture is 89.5%. In the assay with α211.GS.BBz CAAR [4], the % GFP+ AChR CAAR Jurkat NFAT-GFP cells (CD3+ gate) after 12 h co-culture worked out at 91.4%.

In turn, “mAb 35 surface anti-AChR B cell receptor on TIB-175 hybridoma cells (antibody)” came in with a % GFP+ CAAR Jurkat NFAT-GFP cells after 12 h co-culture with TIB-175 (NTD Jurkat in the same figure: 4.1) (% (unit not given; gate frequency)) with α39P AChR.CD8H.BBz CAAR [5] of 53.7. This substance also yielded a % GFP+ CAAR Jurkat NFAT-GFP cells after 12 h co-culture with TIB-175 (NTD Jurkat in the same figure: 0.81) (% (unit not given; gate frequency)) with α65P AChR.CD8H.BBz CAAR [6] of 69. The same substance had a % GFP+ Jurkat reporter cells (CD3+ gate) after 12 h co-culture with TIB-175; the construct is a negative control that is not on the cell surface in the assay with α208.GS.BBz [7] of 2.88%. The values for the % GFP+ AChR CAAR Jurkat reporter cells (CD3+ gate) after 12 h co-culture with TIB-175 with α210.GS.BBz CAAR [8] and with α211.GS.BBz CAAR [9] were 53% and 55.7%, respectively.

As to “anti-AChR alpha subunit monoclonal antibody 210”, the % of cells in the mAb 210-positive gate (% (unit not given; gate frequency)) in the assay with α39P AChR.CD8H.BBz CAAR [10] worked out at 68.5; with α65P AChR.CD8H.BBz CAAR [11], 68.8; in the assay with α39P AChR.CD8H.BBz CAAR [14], 53.4; in the assay with α65P AChR.CD8H.BBz CAAR [15], 13.1; with α210.GS.BBz CAAR [16], 41.3; with α211.GS.BBz CAAR [17], 63.6. Moreover, the % of cells in the mAb 210-positive gate (% (unit not given; gate frequency)) in the assay with α208.GS.BBz [19] amounted to 1.14. Moreover, the % AChR CAAR surface-positive 293T cells was 26.3% with α210.GS.BBz CAAR [12], 17.1% in the assay with α211.GS.BBz CAAR [13] and 3.91% with α208.GS.BBz [18].

With “mAb 195 anti-AChR B cell receptor expressed on Nalm6 cells (antibody)”, in the assay with α39P AChR.CD8H.BBz CAAR [1], the % GFP+ among CD3+-gated α39P CAAR Jurkat NFAT-GFP cells after 12 h co-culture, lower histogram (Nalm6 control: 4.1) (% (unit not given; gate frequency)) was 68.6 and the % of all co-cultured cells in the CD3+ GFP+ quadrant, upper dot plot, upper right (Nalm6 control: 1.52) (% (unit not given; quadrant frequency)) worked out at 17.8. In the assay with α65P AChR.CD8H.BBz CAAR [2], this substance came in with a % GFP+ among CD3+-gated α65P CAAR Jurkat NFAT-GFP cells after 12 h co-culture, lower histogram (% (unit not given; gate frequency)) of 70.5 and a % of all co-cultured cells in the CD3+ GFP+ quadrant, upper dot plot, upper right (% (unit not given; quadrant frequency)) of 6.95. Also, the % GFP+ AChR CAAR Jurkat NFAT-GFP cells (CD3+ gate) after 12 h co-culture with α210.GS.BBz CAAR [3] turned out to be 91.7%. Further, the % GFP+ AChR CAAR Jurkat NFAT-GFP cells (CD3+ gate) after 12 h co-culture in the assay with α211.GS.BBz CAAR [4] came to 94.6%.
